From publication doi:10.1101/2022.03.21.484600 (bioRxiv, 2022)

Experiments:
[1] = molecular target: the molecule itself; assay: circular dichroism of fibrils collected by centrifugation
[2] = molecular target: the molecule itself; assay: fibril formation seen by negative staining TEM
pelleting assay = molecular target: the molecule itself; assay: pelleting assay
[3] = molecular target: the molecule itself; assay: pelleting by centrifugation + negative staining TEM
SEC = molecular target: the molecule itself; assay: SEC

B1: Cdc19 amyloid core peptide, wild type (amino acids 376-392) (peptide)
peptide: TSTTETVAASAVAAVFE
binding result [1]: binds

B2: Cdc19 amyloid core peptide, E380Q E392Q (peptide)
peptide: TSTTQTVAASAVAAVFQ
binding result [2]: binds

B3: Cdc19 amyloid core peptide, E380A E392A (peptide)
peptide: TSTTATVAASAVAAVFA
binding result [1]: binds

B4: Purified full-length PKM2 H391R (enzyme)
chain: not shown
binding result (pelleting assay): binds

B5: PKM2 amyloid core centre peptide, wild type (amino acids 382-402) (peptide)
peptide: AREAEAAIYHLQLFEELRRLA
binding result [3]: binds

B6: Purified full-length Cdc19, wild type (enzyme)
chain: MSRLERLTSLNVVAGSDLRRTSIIGTIGPKTNNPETLVALRKAGLNIVRMNFSHGSYEYHKSVIDNARKSEELYPGRPLAIALDTKGPEIRTGTTTNDVDYPIPPNHEMIFTTDDKYAKACDDKIMYVDYKNITKVISAGRIIYVDDGVLSFQVLEVVDDKTLKVKALNAGKICSHKGVNLPGTDVDLPALSEKDKEDLRFGVKNGVHMVFASFIRTANDVLTIREVLGEQGKDVKIIVKIENQQGVNNFDEILKVTDGVMVARGDLGIEIPAPEVLAVQKKLIAKSNLAGKPVICATQMLESMTYNPRPTRAEVSDVGNAILDGADCVMLSGETAKGNYPINAVTTMAETAVIAEQAIAYLPNYDDMRNCTPKPTSTTETVAASAVAAVFEQKAKAIIVLSTSGTTPRLVSKYRPNCPIILVTRCPRAARFSHLYRGVFPFVFEKEPVSDWTDDVEARINFGIEKAKEFGILKKGDTYVSIQGFKAGAGHSNTLQVSTV
stoichiometry N (SEC): 4

B7: PKM2 amyloid core centre peptide H391R (amino acids 382-402) (peptide)
peptide: AREAEAAIYRLQLFEELRRLA
binding result [3]: binds
